Results reported in article PMC5373536, “Proteomic analysis of organic sulfur compound utilisation in Advenella mimigardefordensis strain DPN7^T” (PLoS ONE, 2017).

Substrate: O=C(O)CC(S)C(=O)O
Assay: oxygen consumption, oxygen electrode, nonlinear regression
Assay type: biochemical, Advenella mimigardefordensis
Conditions: 100 mM Tris/HCl pH 7.4, 0.05-75 mM MS, 2 ug/ml enzyme, O2 co-substrate

B1: MsdoDPN7 (MsdoAm; MIM_c37420) (Advenella mimigardefordensis DPN7) (protein)
chain: MTSKQDKQVAIRQFIDITKDIDSAQLDREKLAKIRDALVGIAAHKEWWGQDLYPAPTGDELQARYLIHAEPDNSYALYLNVMKPGKKIVPHNHTTWACIAAVEGVESNYLYERTDDGSVPGHATVVQTGMQAVEPGHGIALMPDDIHAVRIEDDNIRHLHMYGRALETLTERMAFDTSNNTCKIMDVGVKTQRSKG
notes: full gene in pET-19b (NdeI/XhoI), N-terminal His tag, expressed in E. coli BL21(DE3) pLysS, Ni-NTA purified; tag removal not mentioned
In the case of B1, the Km is reported as 0.2 mM.
